Results published in the DeepSol protein solubility set.

Assay: soluble on expression in E. coli; label from the status in PepcDB or PDB records

Sequence | soluble on expression in E. coli
LSPSLPSVEALRNVQLQIPLKVYSEDGKLISEFGEMRRTPIRFADIPQDFIHALLSAEDDNFANHYGVDVKSLMRAAAQLLKSGHIQTGGSTITMQVAKNYFLTNERSFSRKINEILLALQIERQLTKDEILELYVNKIYLGNRAYGIEAAAQVYYGKPIKDLSLAEMAMIAGLPKAPSRYNPLVNPTRSTERRNWILERMLKLGFIDQQRYQAAVEEPINASYHVQTPELNAPYIAEMARAEMVGRYGSEAYTEGYKVITTVRSDLQNAASQSVRDGLIDYDQRHGYRGPETRLPGQTRDAWLKHLGQQRSIGGLEPAIVTQVEKSGIMVMTRDGKEEAVTWDSMKWARPFLSNNSMGPMPRQPADVAQAGDQIRVQRQEDGTLRFVQIPAAQSALISLDPKDGAIRSLVGGFSFEQSNYNRAIQAKRQPGSSFKPFIYSAALDNGFTAASLVNDAPIVFVDEYLDKVWRPKNDTNTFLGPIPLREALYKSRNMVSIRVLQGLGIERAISYITKFGFQRDELPRNFSLALGTATVTPMEIAGAWSVFANGGYKVNPYVIERIESRDGQVLYQANPPRVPVEEQVAADAEDAGNPGDPEHPESAEGEGSIEAQQVAAKAQTTFEPTPAERIIDARTAYIMTSMLQDVIKRGTGRRALALKRTDLAGKTGTTNDSKDGWFSGYNSDYVTSVWVGFDQPETLGRREYGGTVALPIWIRYMGFALKDKPMHTMAEPPGIVSLRIDPVTGRSAAPGTPGAYFEMFKNEDTPPSVNELPPGSFPGSPLPDDEGAPIDL | not soluble
MIKDPRPLNDKAFIQQCIRQLCEFLTENGYAHNVSMKSLQAPSVKDFLKIFTFLYGFLCPSYELPDTKFEEEVPRIFKDLGYPFALSKSSMYTVGAPHTWPHIVAALVWLIDCIKIHTAMKESSPLFDDGQPWGEETEDGIMHNKLFLDYTIKCYESFMSGADSFDEMNAELQSKLKDLFNVDAFKLESLEAKNRALNEQIARLEQERSTANKANAERLKRLQKSADLYKDRLGLEIRKIYGEKLQFIFTNIDPKNPESPFMFSLHLNEARDYEVSDSAPHLEGLAEFQENVRKTNNFSAFLANVRKAFTATVYQ | soluble
SWVWNQMFVLEEFSGPEPILVGRLHTDLDPGSKKIKYILSGDGAGTIFQINDITGDIHAIKRLDREEKAEYTLTAQAVDFETNKPLEPPSEFIIKVQDINDNAPEFLNGPYHATVPEMSILGTSVTNVTATDADDPVYGNSAKLVYSILEGQPYFSIEPETAIIKTALPNMDREAKEEYLVVIQAKDMGGHSGGLSGTTTLTVTLTDVNDNPPKFAQSLYHFSVPEDVVLGTAIGRVKANDQDIGENAQSSYDIIDGDGTALFEITSDAQAQDGVIRLRKPLDFETKKSYTLKVEAANIHIDPRFSSRGPFKDTATVKIVVE | soluble
MKKFVALILGCITICGLYGCSKNSSQIINKTFSLPAYNRIEIDSANDDIKIISGKHYRVRYVGQNKLKPTIKVKNGVLVIDSPKKSTIINSNIFGSKNIKQTLTIEMPKKELKYLSVDTSNGDVSVDYLEVQKGTIDTSNGNVNLKNLITKKDFEIDTSNGTVKVGKSNVEGYALSTSNGSIVVKGENKSDEFEKNTSAKNVLSIDTSNGNIYVNLEHHHHHH | not soluble
MSLEASLLKKNQSIELTIEDLTHDGSGVGKIDGYPFFIPNTLPGEKVTAKIIKLNKNYGFARMENIETVSANRVEPPCAVYSKCGGCSLQHLSYDGQLEFKRNQVEETMKRIGKLNVEVPETLGMENPWRYRNKSQVPVGFVNGKLTAGFYQKRSHAIIDMSTCLIHNEQGDFAVQKTREILAKYGTEPYDEQTGKGDIRHIMTRFAHTTGQLMIVLVTTKERMPFKEEIVRDLVEQLELTSIVQNINPHKTNVIFGDRTKTLWGKDIIEDTIHGIRFAISARSFYQVNPLQTEVLYQQAIDAAELTGEETVIDAYCGIGSISLCLAKKAKHVYGVEIVDQAIQDARANAELNELANTTFETGKAEEVIPSWYKAGIVADVLVVDPPRKGCDEKLLETILAMKPKKVVYVSCNPGTLARDMKILTDGGYVAKKVQPVDMFPMTTHIEAVTVLHLNEGHHHHHH | soluble
GPGSDQLKQSAFLVRNDEKVAALIVLLKRVLHVGEAAANSAQALIFSESKFHVEFLQMILTHYSISTSAVHGQMDQEARRLAVRSFAKRETSVMVVTDVAARGLDLPLLDNVVNFSFPFNPKLFVHRVGRVARAGRSGTAYSIMTFEDFPYYVDLMQFIGRPLQSAPVPGDLLFTPDDGCYGRLPEEDIQLELDFLKRLH | not soluble
MSLKEVRYAMIHDESRCNGCNICARACRKTNHVPAQGSRLSIAHIPVTDNDNETQYHFFRQSCQHCEDAPCIDVCPTGASWRDEQGIVRVEKSQCIGCSYCIGACPYLVRYLNPVTKVADKCDFCAESRLAKGFPPICVSACPEHALIFGREDSPEIQAWLQDNKYYQYQLPGTGKPHLYRRFGQHLIKKENEGHHHHHH | not soluble
MSLQIKVSQFGLNLAHAWATAASSAKKSRIVTFVKLTSSDGAFGFGESAPSSRYGETLETVTAFLAKIDPKQLSFDDVPGSMAYLDKLSSGDFAAKAAVNIALWDGAGKKARKPIYDLLGLGFTENKHITSYTIGIDAPEIIRQKVLEAEQYPVLKLKVGDKNDRETMAILRSIAPAKTVRIDGNEGWKTKEEALKNIEWFAQDKNIEFVEQPMPADSNPKDLAWLKERSPLPLYADESFFAVADVSLCVDCFHGVNVKLVKTAGISGAYEALQAAKKAGLKRMIGCMVESSVLIGAGAHLAELADHLDIDTNLLITNDPFQGTTAEKGIISFAKASEPCGLRVKATPSFVMEGHHHHHH | soluble
MGSDKIHHHHHHMATLSKKIDFAIIMSVKNANPNGDPLNGNRPRTDYEGLGEITDVCLKRKIRDRLVEQYVSLKNEEEKKGQAIFVQSDDRKIDGETSLRNRAESEKNGLGKKAFGANAKKDETAKSACEKWFDVRAFGQVFAFGKGNDADGVSIPVRGPVTIQSAFSRDLVSISSTQITKSVSGEGDGKKRSSDTMGMKHRVDRGIYVTYGTMNPQLAERTGFSDKDAAVIKAILPKIFENDASSARPEGSMEVVKVLWWQHNSKSGDYSSAKVHRSLKVNPDGSYIIEPLNGLVPEEIAGF | not soluble
MPKESLLRELSALREQLEQQPPLNEEQRAELELLIRDIELKLANEDALNEGSLVDGVNLAVERFEVSHPTLAGTLRSIVQSLANMGI | not soluble
MSLDIRRANSADLNALNALEQQLFDGDRISPRQMKRFLHSDHAALFVADAGDQLAGYALLLFHQGTQLSRLYSIAVKPEFRGQRIAQSLVEQCERAALDQGSTTLRLEVREDNTAALKLYEKMGYKTLKLLIHYYDDLCDGRRMQKRLTPQESKVLLPMPLYVQTTPFTCGAACLLMSFACLDKTFEPSRTQEMQLWREATTIFMAAGHGGCSGQGLALAAARRGYHVELWNQSRSTPFIDSVRDPNKKQIIELVHQDFCQQLAEQDVSMIDAPPSQAQLEEWVRKGACVLLLISTYRFDGKKEPHWIVLSGLSDKFFFFHDPHAESEEHVSGSGYIPVGKAALSQIIGFGKQKQIACVVITPRLEGHHHHHH | soluble
MGSDKIHHHHHHMLDENFEALRREATAWIVRITSGTATTEDAEALLRWRSRSDAHEQAFQQSARLWKNLGSALGETRKTSASTVTRRSFIAAGSVAAGAAGVGVVLSELGFLPSVDAMLADYATGVGEQRTVELVDGSTAILDGGTTLSLDYSPSSRHLVLTSGAAVFDVVHDAARPFVVTAANGDTTATGTSFSVKHGEEDVSIECLEGHITVQCLGDSQLNGGEGISYSRAGLGKKVAADIETAAAWRRGLLIFEDRPLADVVSDLNRHRRGRVVIASSDLRSRRMSGVFHLNRPDEILAHLEETLQVRPVSLVGGIVLLR | not soluble
MVKDKQKAIFSENLNSYIAKSEKTQLEIAKSIGVSPQTFNTWCKGIAIPRMGKVQALADYFNINKSDLIEDKKLNIDTVPIESGYTIPVLGRVAAGYGKEAVEEVIGQIEISPSMAAKGDYFGLLIKGDSMIPTLYDGDTVIVERTDDAESGDLVIALVNGSDATCKRLQKYAEGIALIPQNPVYEPMRFTESEIDTTPVKILGKVVEMRRKFLEHHHHHH | soluble
